Experimental findings from PMC12474298 are described below.

The experiment concerns the target HaHV1 UL36h NLS peptide (residues 1491-1500), FITC/Ahx-labelled (haliotid herpesvirus 1 (HaHV1)). The experiment is described as follows: fluorescence polarisation.

“human importin α1 lacking the importin-β binding domain (hIMPα1ΔIBB) (domain or fragment)”: the Kd came out at 226 nM.
Regarding “human importin α3 lacking the importin-β binding domain (hIMPα3ΔIBB) (domain or fragment)”, the Kd was 193 nM.
